Experimental findings from patent US20200140562A1 (Innovent, published 2020) are described below.

Assay [1] concerns the target T1, human OX40 on cells (CHO-hOX40, 293HEK-hOX40, Jurkat-hOX40, activated primary CD4+ T cells) (human, UniProt P43489 29-277).
T1 construct: whole, on cells; The cell type is told in each assay; also called CHO-OX40
T1 sequence (looked up): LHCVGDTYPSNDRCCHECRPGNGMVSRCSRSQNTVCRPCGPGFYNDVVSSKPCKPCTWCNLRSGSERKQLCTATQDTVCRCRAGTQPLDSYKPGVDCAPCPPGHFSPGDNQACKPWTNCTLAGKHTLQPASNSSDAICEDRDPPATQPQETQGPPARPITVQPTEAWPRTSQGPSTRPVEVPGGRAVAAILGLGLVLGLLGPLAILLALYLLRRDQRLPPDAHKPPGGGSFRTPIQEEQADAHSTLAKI
Kind of assay: flow cytometry, CHO-hOX40, 100 nM blocker, competitor OX40L-hFc-fluorescein. (A flow cytometer gives signals particle by particle.)

Assay [2] deals with T1, human OX40 on cells (CHO-hOX40, …). Briefly: flow cytometry, activated CD4+ T cells, donor 1, 100 nM.
Assay [3] concerns the target T2, cyno OX40_Fc (Acro Biosystems) (cyno).
T2 construct: Bought
Briefly: BLI, IgG1 on tip, cyno OX40-Fc 100 nM, avid. On the technique in general: Biolayer interferometry detects binding as a change in optical thickness at a sensor tip.

For assay [4], the target named is T3, mouse OX40Fc (Acro Biosystems) (mouse, UniProt P47741 20-211, limits assumed).
T3 construct: Bought; not shown: Fc
T3 sequence (looked up): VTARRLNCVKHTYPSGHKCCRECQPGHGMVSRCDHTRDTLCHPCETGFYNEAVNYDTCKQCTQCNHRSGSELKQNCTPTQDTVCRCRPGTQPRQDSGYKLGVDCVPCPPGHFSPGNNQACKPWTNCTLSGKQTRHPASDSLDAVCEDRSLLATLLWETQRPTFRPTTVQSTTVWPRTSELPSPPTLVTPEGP
Kind of assay: BLI, IgG1 on tip, mouse OX40-Fc in solution.

Assay [5] concerns the target T4, human OX40_Fc (R&D Systems) (human, UniProt P43489 29-216).
T4 construct: Bought
Kind of assay: BLI, IgG1 on tip, hOX40-Fc 50 nM, avid.

Assay [6] concerns the target T1, human OX40 on cells (CHO-hOX40, …). Kind of assay: flow cytometry, activated CD4+ T cells, donor 2, 100 nM.
For assay [7] the target is unchanged. Briefly: flow cytometry, 293HEK-hOX40, 1.6 nM.
Assay [8] shares this target. Briefly: cell-based or functional assay.
The target is the same in assay [9]. Kind of assay: flow cytometry, CHO-hOX40, 100 nM.
The target is the same in assay [10]. Briefly: flow cytometry, MFI on CHO-hOX40 over wild-type CHO.
The target is the same in assay [11]. Kind of assay: flow cytometry, 293HEK-hOX40, 200 nM.
Assay [12] shares this target. Kind of assay: flow cytometry, 293HEK-hOX40, 40 nM.
Assay [13] has the same target. Kind of assay: flow cytometry, 293HEK-hOX40, 8 nM.
The target in assay [14] is T3, mouse OX40Fc (Acro Biosystems). Kind of assay: BLI, IgG1 on tip, mouse OX40-Fc 100 nM, avid.

B1: ADI-20113, IgG1 format (antibody, V domains shown)
VH: QVQLVESGGGVVQPGRSLRLSCAASGFTFSSYGMHWVRQAPGKGLEWVAVISYDGSNKYYADSVKGRFTISRDNSKNTLYLQMNSLRAEDTAVYYCARGRPWYSETGTSAFDIWGQGTMVTVSS
VL: EIVMTQSPATLSVSPGERATLSCRASQSVSSNLAWYQQKPGQAPRLLIYSASTRATGIPARFSGSGSGTEFTLTISSLQSEDFAVYYCQQHNVYPPYTFGGGTKVEIKR
notes: Made in yeast
For B1, the “MFI of OX40L signal on CHO-OX40 cells” value in assay [1] stood at 24000 MFI. The MFI in assay [2] stood at 84400 MFI; in assay [6], 115000 MFI; in assay [7], 734000 MFI; in assay [11], 2.41e+06 MFI; in [12] it was 2.18e+06 MFI; in assay [13], 2e+06 MFI. Also, the Kd in assay [3] came out at 5.52 nM; in assay [5], 1.22 nM. The binding result in [4] is “no binding (tested: 100 nM)”. Besides, the “NFkB-Luc fold change in Jurkat stimulated by PHA+ anti-CD28” value (“NFkB-Luc fold change … by PHA+ anti-CD28” below) in assay [8] was determined as 3.79 fold over IgG4 control. For the same molecule, in [8], the “NFkB-Luc fold change in Jurkat stimulated by anti-CD3+ anti-CD28” value is 3.98 fold over IgG4 control. In addition, the “CHO-OX40 binding intensity (MFI)” value in [9] worked out at 152000 MFI. Moreover, the Fold difference in assay [10] amounted to 2460 fold.

B2: ADI-20096, IgG1 format (antibody, V domains shown)
VH: EVQLVESGGGLVKPGGSLRLSCAASGFTFSSYSMNWVRQAPGKGLEWVSSISSSSNYIYYADSVKGRFTISRDNAKNSLYLQMNSLRAEDTAVYYCARGAPLGYSWEYFDLWGRGTLVTVSS
VL: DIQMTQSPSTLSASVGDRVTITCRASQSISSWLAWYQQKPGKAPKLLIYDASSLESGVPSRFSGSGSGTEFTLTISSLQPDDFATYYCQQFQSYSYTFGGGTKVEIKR
notes: Made in yeast
On to B2, for which, in assay [1], the “MFI of OX40L signal on CHO-OX40 cells” value was 31900 MFI. Moreover, the MFI in assay [2] is 54600 MFI; in assay [6] it was 75400 MFI; in assay [7] it was 417000 MFI; in assay [11], 1.84e+06 MFI; in assay [12], 1.82e+06 MFI; in assay [13], 1.1e+06 MFI. The results for the Kd in assay [5] and in [14] were 3.36 nM and 5.41 nM, respectively. The “NFkB-Luc fold change … by PHA+ anti-CD28” value in assay [8] turned out to be 4.57 fold over IgG4 control. The “NFkB-Luc fold change in Jurkat stimulated by anti-CD3+ anti-CD28” value in assay [8] worked out at 5.12 fold over IgG4 control. In [9], the “CHO-OX40 binding intensity (MFI)” value is 133000 MFI. In assay [10], the Fold difference was found to be 1970 fold.

B3: ADI-20066, IgG1 format (antibody, V domains shown)
VH: QLQLQESGPGLVKPSETLSLTCTVSGGSISSSSYYWGWIRQPPGKGLEWIGSIYYSGSTYYNPSLKSRVTISVDTSKNQFSLKLSSVTAADTAVYYCARDPGYSASPNWFDPWGQGTLVTVSS
VL: EIVLTQSPGTLSLSPGERATLSCRASQSVSSSFLAWYQQKPGQAPRLLIYGASSRATGIPDRFSGSGSGTDFTLTISRLEPEDFAVYYCQQYDVFPITFGGGTKVEIKR
notes: Made in yeast
For the molecule B3, the “MFI of OX40L signal on CHO-OX40 cells” value in [1] was 32800 MFI. Besides, the MFI in assay [2] stood at 134000 MFI; in assay [6], 193000 MFI; in assay [7], 626000 MFI; in assay [11], 2.55e+06 MFI; in [12] it was 2.39e+06 MFI; in assay [13], 2.82e+06 MFI. Moreover, the results for the Kd in assay [3] and in [5] were 14.3 nM and 0.91 nM, respectively. Besides, the binding result in assay [4] is listed as “no binding (tested: 100 nM)”. Besides, the “NFkB-Luc fold change … by PHA+ anti-CD28” value in [8] came out at 2.09 fold over IgG4 control. In addition, the “NFkB-Luc fold change in Jurkat stimulated by anti-CD3+ anti-CD28” value in [8] stood at 1.96 fold over IgG4 control. For the same molecule, the “CHO-OX40 binding intensity (MFI)” value in assay [9] is 161000 MFI. In addition, the Fold difference in assay [10] came out at 2750 fold.

B4: ADI-20048, IgG1 format (antibody, V domains shown)
VH: QVQLQESGPGLVKPSETLSLTCTVSGGSISSYYWSWIRQPPGKGLEWIGYIYSSGSTNYNPSLKSRVTISVDTSKNQFSLKLSSVTAADTAVYYCARDAPGGSSYQDYYMDVWGKGTTVTVSS
VL: EIVLTQSPATLSLSPGERATLSCRASQSVSSYLAWFQQKPGQAPRLLIYDASNRATGIPARFSGSGSGTDFTLTISSLEPEDFAVYYCQQAFSMPPTFGGGTKVEIKR
notes: Made in yeast
As to B4, in [1], the “MFI of OX40L signal on CHO-OX40 cells” value was determined as 34300 MFI. In addition, the MFI in assay [2] was found to be 43100 MFI; in [6], 62600 MFI; in [7] it was 977000 MFI; in assay [11], 1.7e+06 MFI; in assay [12] it was 1.85e+06 MFI; in [13], 1.73e+06 MFI. The equilibrium dissociation constant (Kd) is 9.86 nM in assay [3], 3.68 nM in assay [5] and 3.76 nM in assay [14]. Besides, in [8], the “NFkB-Luc fold change … by PHA+ anti-CD28” value turned out to be 3.63 fold over IgG4 control. In assay [8], the “NFkB-Luc fold change in Jurkat stimulated by anti-CD3+ anti-CD28” value came out at 5.77 fold over IgG4 control. Moreover, the “CHO-OX40 binding intensity (MFI)” value in assay [9] amounted to 143000 MFI. In assay [10], this molecule gave a Fold difference of 1470 fold.

As usually defined, the Kd is the free concentration of one partner at which half of the binding sites on the other are occupied at equilibrium, for simple one-to-one binding.
